T1: MPP7, Q5T2T1
T1 sequence (Q5T2T1 134-230, limits assumed, looked up): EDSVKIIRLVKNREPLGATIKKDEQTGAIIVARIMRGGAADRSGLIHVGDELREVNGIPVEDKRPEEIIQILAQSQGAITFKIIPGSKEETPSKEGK

T2: CARD11, Q9BXL7
T2 sequence (Q9BXL7 662-765, limits assumed, looked up): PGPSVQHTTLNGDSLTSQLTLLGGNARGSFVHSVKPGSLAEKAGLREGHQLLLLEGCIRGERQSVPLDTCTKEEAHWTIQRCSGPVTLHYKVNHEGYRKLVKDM

T3: MPP6, Q9NZW5
T3 sequence (Q9NZW5 125-219, limits assumed, looked up): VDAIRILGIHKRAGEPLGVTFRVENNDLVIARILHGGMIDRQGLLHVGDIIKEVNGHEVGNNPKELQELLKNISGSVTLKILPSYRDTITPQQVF

T4: GRIP1_7, Q9Y3R0
T4 sequence (Q9Y3R0 999-1096, limits assumed, looked up): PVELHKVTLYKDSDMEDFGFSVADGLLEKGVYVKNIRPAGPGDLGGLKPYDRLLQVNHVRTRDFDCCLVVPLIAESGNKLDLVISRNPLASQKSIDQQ

T5: DFNB31_1, Q9P202
T5 sequence (Q9P202 135-233, limits assumed, looked up): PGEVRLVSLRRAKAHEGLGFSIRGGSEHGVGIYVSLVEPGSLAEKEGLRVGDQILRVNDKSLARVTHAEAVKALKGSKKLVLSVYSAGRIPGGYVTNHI

T6: LRRC7, Q96NW7
T6 sequence (Q96NW7 1440-1537, limits assumed, looked up): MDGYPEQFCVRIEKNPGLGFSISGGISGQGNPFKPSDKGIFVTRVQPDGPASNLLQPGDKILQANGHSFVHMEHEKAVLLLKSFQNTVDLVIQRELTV

T7: MPDZ_5, O75970
T7 sequence (O75970 695-796, limits assumed, looked up): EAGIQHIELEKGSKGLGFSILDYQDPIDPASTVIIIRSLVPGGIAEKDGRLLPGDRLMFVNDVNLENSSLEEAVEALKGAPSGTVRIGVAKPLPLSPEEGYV

T8: RAPGEF6, Q8TEU7
T8 sequence (Q8TEU7 525-625, limits assumed, looked up): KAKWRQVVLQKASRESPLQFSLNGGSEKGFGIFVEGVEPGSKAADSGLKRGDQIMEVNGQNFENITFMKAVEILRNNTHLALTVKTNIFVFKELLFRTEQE

T9: GRIP1_2, Q9Y3R0
T9 sequence (Q9Y3R0 145-248, limits assumed, looked up): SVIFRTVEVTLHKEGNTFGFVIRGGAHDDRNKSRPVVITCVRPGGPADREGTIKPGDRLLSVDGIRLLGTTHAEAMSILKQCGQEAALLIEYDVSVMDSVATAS

T10: RADIL, Q96JH8
T10 sequence (Q96JH8 971-1071, limits assumed, looked up): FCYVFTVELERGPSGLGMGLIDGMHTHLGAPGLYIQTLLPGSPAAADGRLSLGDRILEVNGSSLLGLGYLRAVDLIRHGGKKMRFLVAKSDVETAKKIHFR

T11: MPDZ_10, O75970
T11 sequence (O75970 1624-1722, limits assumed, looked up): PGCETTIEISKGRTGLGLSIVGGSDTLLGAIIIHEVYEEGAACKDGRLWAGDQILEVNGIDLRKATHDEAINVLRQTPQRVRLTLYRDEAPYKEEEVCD


What was measured:
Test in all cases: holdup assay
Design in all cases: key: below the threshold = too weak to quantify, mostly under pKd 3.1 to 4
Settings in all cases: plain residues with an end cap or a label only (N-terminal biotin on a linker: ado-ado)
FRMPD2_2, Q68DX3 = biological target: FRMPD2_2, Q68DX3
Sequence of FRMPD2_2, Q68DX3 (Q68DX3 944-1038): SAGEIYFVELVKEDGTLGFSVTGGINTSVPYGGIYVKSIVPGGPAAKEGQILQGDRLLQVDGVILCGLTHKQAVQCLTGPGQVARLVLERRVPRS

GOPC, Q9HD26 = biological target: GOPC, Q9HD26
MPP7, Q5T2T1 = biological target: T1, MPP7, Q5T2T1
LDB3, O75112 = biological target: LDB3, O75112
Sequence of LDB3, O75112 (O75112 1-94): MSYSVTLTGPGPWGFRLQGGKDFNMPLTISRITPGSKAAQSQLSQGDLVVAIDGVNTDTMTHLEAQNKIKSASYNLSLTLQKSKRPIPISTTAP

MAGI2_5, Q86UL8 = biological target: MAGI2_5, Q86UL8
Sequence of MAGI2_5, Q86UL8 (Q86UL8 915-1017): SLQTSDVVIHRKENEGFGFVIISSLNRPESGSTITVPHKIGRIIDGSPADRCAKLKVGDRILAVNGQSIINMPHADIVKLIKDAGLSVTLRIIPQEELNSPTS

FRMPD4, Q14CM0 = biological target: FRMPD4, Q14CM0
Sequence of FRMPD4, Q14CM0 (Q14CM0 67-160): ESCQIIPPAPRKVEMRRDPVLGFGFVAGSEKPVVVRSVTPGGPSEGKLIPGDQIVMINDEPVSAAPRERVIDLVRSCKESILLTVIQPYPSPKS

MAGI3_2, Q5TCQ9 = biological target: MAGI3_2, Q5TCQ9
Sequence of MAGI3_2, Q5TCQ9 (Q5TCQ9 398-503): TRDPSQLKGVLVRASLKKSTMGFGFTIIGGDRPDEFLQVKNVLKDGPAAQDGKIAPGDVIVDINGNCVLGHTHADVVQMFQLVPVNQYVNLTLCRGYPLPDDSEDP

CARD11, Q9BXL7 = biological target: T2, CARD11, Q9BXL7
MPP6, Q9NZW5 = biological target: T3, MPP6, Q9NZW5
Inadl_4, Q8NI35 = biological target: Inadl_4, Q8NI35
Sequence of Inadl_4, Q8NI35 (Q8NI35 547-651): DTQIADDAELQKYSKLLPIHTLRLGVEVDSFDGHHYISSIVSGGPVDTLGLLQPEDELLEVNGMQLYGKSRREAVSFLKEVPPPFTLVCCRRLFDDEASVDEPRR

IL16_1, Q14005 = biological target: IL16_1, Q14005
Sequence of IL16_1, Q14005 (Q14005 210-306): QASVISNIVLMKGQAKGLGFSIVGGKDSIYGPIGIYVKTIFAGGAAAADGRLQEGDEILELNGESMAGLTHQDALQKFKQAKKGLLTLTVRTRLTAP

HTRA2, O43464 = biological target: HTRA2, O43464
Sequence of HTRA2, O43464 (O43464 355-458): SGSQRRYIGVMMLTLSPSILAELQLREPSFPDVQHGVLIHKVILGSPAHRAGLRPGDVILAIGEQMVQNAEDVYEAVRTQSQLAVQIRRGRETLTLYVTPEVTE

NHERF4_1, Q86UT5-2 = biological target: NHERF4_1, Q86UT5-2
Sequence of NHERF4_1, Q86UT5-2 (Q86UT5 other isoform, or with tags, fused parts or gaps): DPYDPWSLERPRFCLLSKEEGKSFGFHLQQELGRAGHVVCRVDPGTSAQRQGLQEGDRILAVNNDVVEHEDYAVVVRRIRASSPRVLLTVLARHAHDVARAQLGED

GRIP1_7, Q9Y3R0 = biological target: T4, GRIP1_7, Q9Y3R0
GRIP2_6, Q9C0E4 = biological target: GRIP2_6, Q9C0E4
Sequence of GRIP2_6, Q9C0E4 (Q9C0E4 648-740): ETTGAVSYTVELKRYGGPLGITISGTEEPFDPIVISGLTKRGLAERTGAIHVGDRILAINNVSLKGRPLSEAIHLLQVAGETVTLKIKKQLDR

DLG4_2, P78352 = biological target: DLG4_2, P78352
Sequence of DLG4_2, P78352 (P78352 155-259): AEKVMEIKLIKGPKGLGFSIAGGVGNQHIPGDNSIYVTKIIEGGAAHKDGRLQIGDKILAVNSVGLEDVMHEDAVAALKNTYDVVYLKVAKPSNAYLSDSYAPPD

DFNB31_1, Q9P202 = biological target: T5, DFNB31_1, Q9P202
Inadl_2, Q8NI35 = biological target: Inadl_2, Q8NI35
Sequence of Inadl_2, Q8NI35 (Q8NI35 238-335): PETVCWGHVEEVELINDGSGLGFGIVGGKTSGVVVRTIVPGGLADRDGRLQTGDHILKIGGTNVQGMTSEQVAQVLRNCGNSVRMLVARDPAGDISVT

FRMPD3, Q5JV73 = biological target: FRMPD3, Q5JV73
Sequence of FRMPD3, Q5JV73 (Q5JV73 12-100): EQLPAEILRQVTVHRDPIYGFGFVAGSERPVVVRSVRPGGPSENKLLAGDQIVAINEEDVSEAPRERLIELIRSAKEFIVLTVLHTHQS

LRRC7, Q96NW7 = biological target: T6, LRRC7, Q96NW7
MPDZ_5, O75970 = biological target: T7, MPDZ_5, O75970
RAPGEF6, Q8TEU7 = biological target: T8, RAPGEF6, Q8TEU7
GRIP1_2, Q9Y3R0 = biological target: T9, GRIP1_2, Q9Y3R0
MAST1, Q9Y2H9 = biological target: MAST1, Q9Y2H9
Sequence of MAST1, Q9Y2H9 (Q9Y2H9 962-1065): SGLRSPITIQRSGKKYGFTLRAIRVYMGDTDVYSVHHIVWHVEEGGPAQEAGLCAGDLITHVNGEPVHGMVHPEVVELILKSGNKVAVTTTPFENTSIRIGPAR

RADIL, Q96JH8 = biological target: T10, RADIL, Q96JH8
MPDZ_10, O75970 = biological target: T11, MPDZ_10, O75970

Binder | pKd (FRMPD2_2, Q68DX3) | pKd (GOPC, Q9HD26) | pKd (MPP7, Q5T2T1) | pKd (LDB3, O75112) | pKd (MAGI2_5, Q86UL8) | pKd (FRMPD4, Q14CM0) | pKd (MAGI3_2, Q5TCQ9) | pKd (CARD11, Q9BXL7) | pKd (MPP6, Q9NZW5) | pKd (Inadl_4, Q8NI35) | pKd (IL16_1, Q14005) | pKd (HTRA2, O43464) | pKd (NHERF4_1, Q86UT5-2) | pKd (GRIP1_7, Q9Y3R0) | pKd (GRIP2_6, Q9C0E4) | pKd (DLG4_2, P78352) | pKd (DFNB31_1, Q9P202) | pKd (Inadl_2, Q8NI35) | pKd (FRMPD3, Q5JV73) | pKd (LRRC7, Q96NW7) | also measured
YLEPVLSSEL [ATP2A2, P16615;P16615-3] | below the threshold | below the threshold | below the threshold | below the threshold | 4.82 | below the threshold | below the threshold | below the threshold | below the threshold | below the threshold | below the threshold | below the threshold | 4.39 | below the threshold | below the threshold | below the threshold | below the threshold | below the threshold | below the threshold | below the threshold | pKd (MPDZ_5, O75970): below the threshold; pKd (RAPGEF6, Q8TEU7): below the threshold; pKd (GRIP1_2, Q9Y3R0): below the threshold; pKd (MAST1, Q9Y2H9): 4.83; pKd (RADIL, Q96JH8): below the threshold; pKd (MPDZ_10, O75970): below the threshold
DDPSTAETVL [ABCA7, Q8IZY2] | below the threshold | below the threshold | below the threshold | below the threshold | 4.27 | 4.1 | below the threshold | below the threshold | below the threshold | below the threshold | below the threshold | below the threshold | 3.86 | below the threshold | below the threshold | 3.7 | below the threshold | below the threshold | below the threshold | below the threshold | pKd (MPDZ_5, O75970): below the threshold; pKd (RAPGEF6, Q8TEU7): below the threshold; pKd (GRIP1_2, Q9Y3R0): below the threshold; pKd (MAST1, Q9Y2H9): 4.88; pKd (RADIL, Q96JH8): 3.52; pKd (MPDZ_10, O75970): below the threshold
QHKTQLQTLI [BPIFA2, Q96DR5] | below the threshold | 4.01 | below the threshold | below the threshold | 4.78 | below the threshold | 4.54 | below the threshold | below the threshold | below the threshold | below the threshold | below the threshold | 3.85 | below the threshold | below the threshold | 4.56 | 4.38 | below the threshold | below the threshold | below the threshold | pKd (MPDZ_5, O75970): below the threshold; pKd (RAPGEF6, Q8TEU7): below the threshold; pKd (GRIP1_2, Q9Y3R0): below the threshold; pKd (MAST1, Q9Y2H9): below the threshold; pKd (RADIL, Q96JH8): 3.91; pKd (MPDZ_10, O75970): below the threshold
VDSTVKVWTC [TRAF7, Q6Q0C0] | below the threshold | below the threshold | 3.84 | below the threshold | below the threshold | 4.02 | below the threshold | below the threshold | below the threshold | below the threshold | below the threshold | 4.68 | 3.67 | below the threshold | 4.94 | 3.7 | 3.58 | 3.65 | 3.64 | below the threshold | pKd (MPDZ_5, O75970): below the threshold; pKd (RAPGEF6, Q8TEU7): 3.57; pKd (GRIP1_2, Q9Y3R0): below the threshold; pKd (MAST1, Q9Y2H9): below the threshold; pKd (RADIL, Q96JH8): 4.2; pKd (MPDZ_10, O75970): below the threshold

Reference: PMC9482650, “Quantitative fragmentomics allow affinity mapping of interactomes” (Nature Communications, 2022)
